From paper PMC13376213, “Systematic discovery of motif-based interactions of the auxiliary domains of USP family deubiquitinases” (Nature Communications, 2026)
pKd: −log10 of the molar value. One block for each substance: values may come before it.

Columns and labels:
[1] = target: CYLD CAP-Gly2 domain, GST-tagged (UniProt Q9NQC7); experiment: peptide SPOT array alanine scanning; conditions: parent: est. 0; read off a plot
[2] = target: FITC-HIF1A 568-581 peptide (human); experiment: fluorescence polarisation; saturation: serial dilution of the protein domain, 10 nM FITC-labelled peptide; 50 mM phosphate buffer pH 7.4 with DTT; room temperature; three technical replicates; quadratic fit
[3] = target: USP20 DUSP2 domain, tag cleaved (for FP) (human); experiment: fluorescence polarisation; displacement: unlabeled peptide titrated into the domain (at two-fold the KD of the FITC-labeled peptide) with 10 nM FITC-labeled peptide; 50 mM phosphate buffer pH 7.4, DTT, room temperature; estimated KD
[4] = target: USP33 DUSP2 domain, tag cleaved (for FP) (human) (UniProt Q8TEY7); experiment: as above
[5] = target: FITC-ATXN7L1 36-57 peptide (human); experiment: fluorescence polarisation; saturation: serial dilution of the protein domain, 10 nM FITC-labelled peptide; 50 mM phosphate buffer pH 7.4 with DTT; room temperature; three technical replicates; quadratic fit
[6] = target: FITC-GPR137B 348-362 peptide (human); experiment: as above
[7] = target: USP33 zf-UBP domain, tag cleaved (for FP) (human) (UniProt Q8TEY7); experiment: fluorescence polarisation; displacement: unlabeled peptide titrated into the domain (at two-fold the KD of the FITC-labeled peptide) with 10 nM FITC-labeled peptide; 50 mM phosphate buffer pH 7.4, DTT, room temperature; estimated KD
[8] = target: CYLD CAP-Gly1 domain, GST-tagged (UniProt Q9NQC7); experiment: peptide SPOT array alanine scanning; conditions: parent: est. 0; read off a plot
[9] = target: USP22 zf-UBP domain, tag cleaved (for FP) (human) (UniProt Q9UPT9); experiment: fluorescence polarisation; saturation or displacement not stated for this experiment; 50 mM phosphate buffer pH 7.4, room temperature
[10] = target: FITC-ORAI1 48-63 peptide (human); experiment: fluorescence polarisation; saturation: serial dilution of the protein domain, 10 nM FITC-labelled peptide; 50 mM phosphate buffer pH 7.4 with DTT; room temperature; three technical replicates; quadratic fit
[11] = target: FITC-APBA2 327-338 peptide (human); experiment: as above
[12] = target: USP20 DUSP2 domain (human) (UniProt Q9Y2K6); experiment: fluorescence polarisation; displacement: serial dilution of the unlabelled peptide against the domain (at two-fold the KD of the FITC-labelled peptide) in complex with 10 nM FITC-labelled peptide; 50 mM phosphate buffer pH 7.4; room temperature; three technical replicates; sigmoidal dose-response fit
[13] = target: USP33 DUSP2 domain (human) (UniProt Q8TEY7); experiment: as above

other: signal change (%) [1]: -70%
Substance: FBXO46_(168-183) peptide L170A

pKd [2]: 3.50
Substance: USP33 DUSP2 domain K863E/K865E (from UniProt Q8TEY7 1-942) (domain or fragment)

pKd [5]: 6.00
Substance: USP22 zf-UBP domain (from UniProt Q9UPT9 1-525) (domain or fragment)

other: signal change (%) [8]: -25%
Substance: RBM25_(558-573) peptide (from UniProt P49756) A560 (replacement residue not printed)

pKd [6]: 5.29
Substance: USP20 DUSP2 domain (from UniProt Q9Y2K6 1-914) (domain or fragment)

other: signal change (%) [1]: -55%
Substance: FBXO46_(168-183) peptide A183 (replacement residue not printed)

other: signal change (%) [1]: -80%
Substance: FBXO46_(168-183) peptide E174A

other: signal change (%) [1]: -75%
Substance: FBXO46_(168-183) peptide V172A

pKd [11]: 5.06
Substance: USP33 zf-UBP domain (from UniProt Q8TEY7 1-942) (domain or fragment)

pKd [11]: 5.54
Substance: USP20 zf-UBP domain (from UniProt Q9Y2K6 1-914) (domain or fragment)

pKd [7]: < 3.30
Substance: APBA2_(327-338) peptide R330A (from UniProt Q99767 327-338)

pKd [3]: 4.05 | pKd [4]: < 3.70
Substance: HIF1A_(564-581) peptide L574A (from UniProt Q16665 564-581)

other: signal change (%) [1]: 0%
Substance: FBXO46_(168-183) peptide Q181A

other: signal change (%) [1]: 150%
Substance: FBXO46_(168-183) peptide D168A

pKd [7]: > 5.10
Substance: APBA2_(327-338) peptide, wild type, unlabeled

other: signal change (%) [1]: -70%
Substance: FBXO46_(168-183) peptide L169A

other: signal change (%) [1]: -80%
Substance: FBXO46_(168-183) peptide A177 (replacement residue not printed)

pKd [2]: 3.45
Substance: USP33 DUSP2 domain N835A (from UniProt Q8TEY7 1-942) (domain or fragment)

pKd [6]: 3.86
Substance: USP20 DUSP2 domain N805A (from UniProt Q9Y2K6 1-914) (domain or fragment)

More lines, now with the values behind:

Substance: HIF1A_(564-581) peptide D571K (from UniProt Q16665 564-581)
pKd [3]: 4.07 | pKd [4]: 3.84

Substance: USP20 DUSP2 domain K833E/K835E (from UniProt Q9Y2K6 1-914) (domain or fragment)
pKd [6]: 3.53

Substance: APBA2_(327-338) peptide N334A (from UniProt Q99767 327-338)
pKd [7]: 3.95

Substance: FBXO46_(168-183) peptide S171A
other: signal change (%) [1]: -70%

Substance: HIF1A_(564-581) peptide, wild type, unlabeled (from UniProt Q16665 564-581)
pKd [3]: 4.72 | pKd [4]: 5.82

Substance: ATXN7_(84-105) peptide (from UniProt O15265 84-105)
pKd [9]: 4.24

Substance: FBXO46_(168-183) peptide R182A
other: signal change (%) [1]: -85%

Substance: USP33 DUSP2 domain (from UniProt Q8TEY7 1-942) (domain or fragment)
pKd [2]: 4.50

Substance: USP11 DUSP-UBL tandem domain (from UniProt P51784 1-963) (domain or fragment)
pKd [10]: 3.53

Substance: HIF1A peptide hydroxylated at P564
pKd [3]: 4.59 | pKd [4]: 5.15

Substance: FBXO46_(168-183) peptide V179A
other: signal change (%) [1]: -80%

Substance: RBM25_(558-573) peptide (from UniProt P49756) A569 (replacement residue not printed)
other: signal change (%) [8]: -60%

Substance: FBXO46_(168-183) peptide M175A
other: signal change (%) [1]: -90%

Substance: HIF1A 564-581 F572A peptide
pKd [12]: 3.23 | pKd [13]: 3.03

Substance: FBXO46_(168-183) peptide L178A
other: signal change (%) [1]: -65%

Substance: HIF1A_(564-581) peptide F572A (from UniProt Q16665 564-581)
pKd [4]: < 3.05

Substance: FBXO46_(168-183) peptide A173 (replacement residue not printed)
other: signal change (%) [1]: -75%

Substance: USP20 zf-UBP domain E55K/D59R (from UniProt Q9Y2K6 1-914) (domain or fragment)
pKd [11]: 3.41

Substance: FBXO46_(168-183) peptide V176A
other: signal change (%) [1]: -85%

Substance: FBXO46_(168-183) peptide E180A
other: signal change (%) [1]: -75%
